B1: Mortality factor 4-like protein 1 (Homo sapiens), Q9UBU8-2 (parent)
chain: MAPKQDPKPKFQEGERVLCFHGPLLYEAKCVKVAIKDKQVKYFIHYSGWNKNWDEWVPESRVLKYVDTNLQKQRELQKANQEQYAEGKMRGAAPGKKTSGLQQKNVEVKTKKNKQKTPGNGDGGSTSETPQPPRKKRARVDPTVENEETFMNRVEVKVKIPEELKPWLVDDWDLITRQKQLFYLPAKKNVDSILEDYANYKKSRGNTDNKEYAVNEVVAGIKEYFNVMLGTQLLYKFERPQYAEILADHPDAPMSQVYGAPHLLRLFVRIGAMLAYTPLDEKSLALLLNYLHDFLKYLAKNSATLFSASDYEVAPPEYHRKAV

Variants of: B1
Conditions: with mr1l1_human MRFAP1L1, Q96HT8
Sequence of mr1l1_human MRFAP1L1, Q96HT8 (Q96HT8 whole entry): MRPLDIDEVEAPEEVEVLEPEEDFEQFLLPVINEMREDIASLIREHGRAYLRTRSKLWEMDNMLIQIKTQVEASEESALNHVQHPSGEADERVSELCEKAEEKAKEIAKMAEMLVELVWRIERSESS

**Q.** V169E was tested. Which “effect of a mutation on the interaction” value did it give?
**A.** disrupting interaction

Variants of: B1
Conditions: with mrgbp_human MRGBP

**Q.** For L291A, which “effect of a mutation on the interaction” value is on record?
**A.** disrupting interaction strength

From IntAct's records for PubMed 16407074
